± gives the uncertainty stated by the source.
Experiment: self-splicing fitness, log relative to wild type (ln ratio); higher = more splicing; Tetrahymena group I intron in knt gene, E. coli kanamycin selection, DiMSum; sequences stand for … in CUCUCU…GGAGGGAAAAGUUAUCAGGCAUGCACCUGGUAGCUAGUCUUUAAACCAAUAGAUUGCAUCGGUUUAAAAGGCAAGACCGUCAAAUUGCGGGAAAGGGGUCAACAGCCGUUCAGUACCAAGUCUCAGGGGAAACUUUGAGAUGGCCUUGCAAAGGGUAUGGUAAUAAGCUGACGGACAUGGUCCUAACCACGCAGCCAAGUCCUAAGUCAACAGAUCUUCUGUUGAUAUGGAUGCAGUUCACAGACUAAAUGUCGGUCGGGGAAGAUGUAUUCUUCUCAUAAGAUAUAGUCGGACCUCUCCUUAAUGGGAGCUAGCGGAUGAAGUGAUGCAACACUGGAGCCGCUGGGAACUAAUUUGUAUGCGAAAGUAUAUUGAUUAGUUUUGGAGUACUCGUGGUCG
Method in brief: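 Library with all eight P1ex-region intron nucleotides randomised, intron inside the knt kanamycin-resistance gene on pET-22b(+), in E. coli BL21(DE3). Cells grew overnight at 37°C or 30°C on LB agar with or without 25 μg/mL kanamycin (plus 100 μg/mL carbenicillin, 50 μM IPTG, 0.2% rhamnose), in six replicate transformations. Pooled colonies were amplicon-sequenced on Illumina HiSeq 2500. DiMSum fitness is the error-weighted combination of wild-type-normalised replicate fold changes, kanamycin versus none.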

Sequence	self-splicing fitness (ln) (30 °C)	self-splicing fitness (ln) (37 °C)
GAACAGCAAUAUUACGUGUG	-1.35 ± 0.054	-0.967 ± 0.069
GAAGAGCAAUAUUACGAACC	-1.82 ± 0.25	-1.13 ± 0.29
GAAGAGCAAUAUUACGAAGU	-3.98 ± 0.42	-2.85 ± 0.3
GAAGAGCAAUAUUACGACAA	–	-2.02 ± 0.38
GAAGAGCAAUAUUACGAUAA	-3.7 ± 0.29	-2.11 ± 0.22
GAAGAGCAAUAUUACGAUAG	-3.04 ± 0.24	-2.14 ± 0.29
GAAGAGCAAUAUUACGAUGC	-2.13 ± 0.16	-1.9 ± 0.18
GAAGAGCAAUAUUACGCACU	-2.39 ± 0.17	-1.33 ± 0.18
GAAGAGCAAUAUUACGCAGU	-2.47 ± 0.2	-2.38 ± 0.23
GAAGAGCAAUAUUACGCGCA	-1.11 ± 0.2	-1.35 ± 0.14
GAAGAGCAAUAUUACGCUAC	-3.19 ± 0.25	–
GAAGAGCAAUAUUACGCUGA	–	-2.3 ± 0.28
GAAGAGCAAUAUUACGGAAG	-2.81 ± 0.2	-2.59 ± 0.44
GAAGAGCAAUAUUACGGAUC	-1.1 ± 0.071	-1.1 ± 0.09
GAAGAGCAAUAUUACGGGUA	-2.6 ± 0.19	-1.89 ± 0.15
GAAGAGCAAUAUUACGUAAC	-1.31 ± 0.12	-1.54 ± 0.21
GAAGAGCAAUAUUACGUCCA	-3.13 ± 0.4	–
GAAGAGCAAUAUUACGUGAA	-2.94 ± 0.15	-2.03 ± 0.17
GAAGAGCAAUAUUACGUGGU	-4.07 ± 0.23	-3.01 ± 0.32
GAAGAGCAAUAUUACGUUGG	-3.53 ± 0.18	-2.34 ± 0.16
GAAUAGCAAUAUUACGAAAU	-1.3 ± 0.1	-1.6 ± 0.13
GAAUAGCAAUAUUACGACAC	-0.0325 ± 0.3	-0.0524 ± 0.23
GAAUAGCAAUAUUACGACAU	-0.389 ± 0.012	0.00512 ± 0.033
GAAUAGCAAUAUUACGACGC	0.293 ± 0.13	-0.0831 ± 0.16
GAAUAGCAAUAUUACGAGAC	–	-0.147 ± 0.18

Sequence	self-splicing fitness (ln) (30 °C)	self-splicing fitness (ln) (37 °C)
GAAUAGCAAUAUUACGAGGC	-3.58 ± 0.38	-2.2 ± 0.3
GAAUAGCAAUAUUACGAGGG	-3.39 ± 0.18	-3.25 ± 0.19
GAAUAGCAAUAUUACGAUAC	-1.47 ± 0.15	-0.123 ± 0.17
GAAUAGCAAUAUUACGAUGA	-1.2 ± 0.083	-0.62 ± 0.093
GAAUAGCAAUAUUACGAUUG	-1.4 ± 0.1	-0.331 ± 0.13
GAAUAGCAAUAUUACGCAGA	-2.53 ± 0.16	-1.34 ± 0.14
GAAUAGCAAUAUUACGCCAU	–	-1.49 ± 0.36
GAAUAGCAAUAUUACGCGCU	-0.615 ± 0.13	-0.0137 ± 0.15
GAAUAGCAAUAUUACGGAGA	-3.11 ± 0.47	-2.56 ± 0.45
GAAUAGCAAUAUUACGGAGU	-2.02 ± 0.18	-2.03 ± 0.23
GAAUAGCAAUAUUACGGCUU	0.268 ± 0.075	0.303 ± 0.11
GAAUAGCAAUAUUACGGGAU	-2.06 ± 0.13	-2.06 ± 0.16
GAAUAGCAAUAUUACGGUCC	-2.78 ± 0.24	-0.862 ± 0.25
GAAUAGCAAUAUUACGGUGG	-3.06 ± 0.24	-1.08 ± 0.12
GAAUAGCAAUAUUACGUAGU	-2.61 ± 0.12	-1.99 ± 0.18
GAAUAGCAAUAUUACGUCCC	-1.33 ± 0.12	-0.165 ± 0.17
GAAUAGCAAUAUUACGUCGU	-2 ± 0.12	-1.35 ± 0.14
GACAAGCAAUAUUACGACUC	0.206 ± 0.1	0.387 ± 0.12
GACAAGCAAUAUUACGAGAG	-3.18 ± 0.17	-2.96 ± 0.21
GACAAGCAAUAUUACGAGCU	-1.28 ± 0.08	-0.288 ± 0.11
GACAAGCAAUAUUACGAUGC	-1.44 ± 0.091	-0.732 ± 0.11
GACAAGCAAUAUUACGCAGU	-3.47 ± 0.35	-1.85 ± 0.22
GACAAGCAAUAUUACGCAUC	-4.33 ± 0.28	-3.91 ± 0.42
GACAAGCAAUAUUACGCGAA	-2.8 ± 0.16	-1.88 ± 0.14
GACAAGCAAUAUUACGCGGU	-3.2 ± 0.24	-2.48 ± 0.24

Sequence	self-splicing fitness (ln) (30 °C)	self-splicing fitness (ln) (37 °C)
GACAAGCAAUAUUACGCGUC	-4.02 ± 0.22	-3.45 ± 0.39
GACAAGCAAUAUUACGCUCC	-3.8 ± 0.24	-2.56 ± 0.27
GACAAGCAAUAUUACGGAAU	-1.92 ± 0.11	-1.35 ± 0.12
GACAAGCAAUAUUACGGCCC	-0.324 ± 0.16	0.203 ± 0.28
GACAAGCAAUAUUACGGCUU	-0.995 ± 0.068	-0.505 ± 0.1
GACAAGCAAUAUUACGGGCU	-1.63 ± 0.087	-1.39 ± 0.097
GACAAGCAAUAUUACGGGGA	-3.05 ± 0.12	-1.75 ± 0.1
GACAAGCAAUAUUACGUACU	-1.16 ± 0.059	-0.397 ± 0.079
GACAAGCAAUAUUACGUCGC	-3.86 ± 0.25	-2.1 ± 0.21
GACAAGCAAUAUUACGUCUA	-2.01 ± 0.079	-1.04 ± 0.082
GACAAGCAAUAUUACGUGCA	-0.912 ± 0.06	0.0273 ± 0.077
GACAAGCAAUAUUACGUGCU	-2.93 ± 0.082	-1.82 ± 0.078
GACAAGCAAUAUUACGUUAC	-3.32 ± 0.15	-2.36 ± 0.17
GACAAGCAAUAUUACGUUCC	-3.15 ± 0.24	-2.8 ± 0.31
GACCAGCAAUAUUACGAAGC	-0.849 ± 0.062	-0.511 ± 0.093
GACCAGCAAUAUUACGACAC	-0.384 ± 0.065	-0.0663 ± 0.085
GACCAGCAAUAUUACGACAG	-3.85 ± 0.18	-2.22 ± 0.18
GACCAGCAAUAUUACGACGG	-2.67 ± 0.15	-1.99 ± 0.18
GACCAGCAAUAUUACGACUA	-0.158 ± 0.056	-0.0882 ± 0.062
GACCAGCAAUAUUACGAGUC	-3.82 ± 0.23	-2.06 ± 0.18
GACCAGCAAUAUUACGAGUG	-0.669 ± 0.055	-0.33 ± 0.084
GACCAGCAAUAUUACGAUAC	-0.984 ± 0.056	-0.634 ± 0.066
GACCAGCAAUAUUACGCAUG	-1.2 ± 0.073	-1.65 ± 0.09
GACCAGCAAUAUUACGCUAG	-1.29 ± 0.087	-0.88 ± 0.1
GACCAGCAAUAUUACGGCAC	-0.0527 ± 0.076	0.491 ± 0.11

Sequence	self-splicing fitness (ln) (30 °C)	self-splicing fitness (ln) (37 °C)
GACCAGCAAUAUUACGGCAG	-3.74 ± 0.3	-3.28 ± 0.25
GACCAGCAAUAUUACGGCCA	-0.323 ± 0.077	0.208 ± 0.13
GACCAGCAAUAUUACGGCGG	-2.55 ± 0.2	-2.79 ± 0.27
GACCAGCAAUAUUACGGGGU	-3.79 ± 0.19	-1.82 ± 0.14
GACCAGCAAUAUUACGGUCG	-1.98 ± 0.077	-1.47 ± 0.11
GACCAGCAAUAUUACGGUCU	-3.61 ± 0.17	-3.16 ± 0.21
GACCAGCAAUAUUACGUAAC	-0.981 ± 0.065	-0.475 ± 0.079
GACCAGCAAUAUUACGUAAG	-1.55 ± 0.052	-0.817 ± 0.076
GACCAGCAAUAUUACGUACA	-0.568 ± 0.067	0.0774 ± 0.083
GACCAGCAAUAUUACGUAUC	-0.803 ± 0.1	-0.659 ± 0.11
GACCAGCAAUAUUACGUCCG	-4.09 ± 0.27	-2.12 ± 0.17
GACCAGCAAUAUUACGUCUA	-1.44 ± 0.085	-0.724 ± 0.081
GACCAGCAAUAUUACGUUCA	-0.884 ± 0.1	-0.163 ± 0.097
GACCAGCAAUAUUACGUUGC	-1.78 ± 0.067	-1.56 ± 0.1
GACGAGCAAUAUUACGACGC	-0.758 ± 0.13	-0.747 ± 0.15
GACGAGCAAUAUUACGAGUC	-3.37 ± 0.2	-2.85 ± 0.31
GACGAGCAAUAUUACGAGUG	-4.04 ± 0.31	-2.63 ± 0.19
GACGAGCAAUAUUACGAUAU	-3.83 ± 0.33	-2.15 ± 0.32
GACGAGCAAUAUUACGAUUA	-2.73 ± 0.23	-1.55 ± 0.22
GACGAGCAAUAUUACGCACA	-2.32 ± 0.15	-0.917 ± 0.14
GACGAGCAAUAUUACGCACU	-1.32 ± 0.15	-0.506 ± 0.16
GACGAGCAAUAUUACGCCUG	–	-1.56 ± 0.47

From the supplement of paper PMC7877785
